This is an account of results in patent publication US20240400715A1 (VIBRANT PHARMA, published 2024).

Values joined by “and” are separate entries in the source; they are usually repeats but may differ in a detail not shown here. Equal values may be shown once.

Experiment [1] has as its target T1, human CD3 on Jurkat cells (human, UniProt P07766 23-207; P04234 22-171; P09693 23-182).
T1 construct: whole, on cells; CD3 complex as on Jurkat (Clone E6-1) cells; also called CD3 expressing cells (Jurkat)
In words: FACS, Jurkat cells.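 Note: flow cytometric binding of bispecific antibodies to Jurkat T cells, threefold serial dilutions incubated half an hour in the cold, EC50 taken from the fitted binding curve.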 A general note: A flow cytometer gives signals particle by particle.

The target of experiment [2] is T2, human CD3ε/δ (ACRO systems, CDD-H52W1) (human, UniProt P07766 23-126; P04234 22-105).
T2 construct: Bought protein; also called human CD3ϵ/CD3δ; human CD3 epsilon/delta antigen
The experiment in a line: BLI, antibody captured, antigen in solution.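 Note: bispecific antibodies captured on AHIC biosensors to a 1.5 nm loading signal, in PBST with 0.02% detergent.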 A general note: Biolayer interferometry detects binding as a change in optical thickness at a sensor tip.
Experimental: The bispecific antibodies were diluted to 5 ag/ml, and 1.5 nm protein was coupled to the surface of the AHIC sensor chip through 0.02% PBST.

B1: 311 (TA6), configuration of FIG. 1X (bispecific antibody, IgG4)
heavy: EVQLVQSGAEVKKPGASVKVSCKASGYTFTNYYIHWVRQAPGQGLEWIGWIYPGDGNTKYNEKFKGRATLTADTSTSTAYLELSSLRSEDTAVYYCARDSYSNYYFDYWGQGTLVTVSSASTKGPSVFPLAPCSRSTSESTAALGCLVKDYFPEPVTVSWNSGALTSGVHTFPAVLQSSGLYSLSSVVTVPSSSLGTKTYTCNVDHKPSNTKVDKRVESKYGPPCPPCPAPEAAGGPSVFLFPPKPKDTLMISRTPEVTCVVVDVSQEDPEVQFNWYVDGVEVHNAKTKPREEQFNSTYRVVSVLTVLHQDWLNGKEYKCKVSNKGLPSSIEKTISKAKGQPREPQVYTLPPCQEEMTKNQVSLWCLVKGFYPSDIAVEWESNGQPENNYKTTPPVLDSDGSFFLYSRLTVDKSRWQEGNVFSCSVMHEALHNHYTQKSLSLSLGGGGSGGGGSEVQLVESGGGFVQAGESLTLSCTSSTLTFTPYRMAWYRQAPGKQRDLVADISSGDGRTTNYADFAKGRFTISRDNIKNTVFLRMTNLKPEDTAVYYCNTFVSFVGIARSWGQGTQVTVSS
chain: ESKYGPPCPPCPAPEAAGGPSVFLFPPKPKDTLMISRTPEVTCVVVDVSQEDPEVQFNWYVDGVEVHNAKTKPREEQFNSTYRVVSVLTVLHQDWLNGKEYKCKVSNKGLPSSIEKTISKAKGQPREPQVCTLPPSQEEMTKNQVSLSCAVKGFYPSDIAVEWESNGQPENNYKTTPPVLDSDGSFFLVSRLTVDKSRWQEGNVFSCSVMHEALHNRFTQKSLSLSL
light: DIVMTQSPDSLAVSLGERATINCKSSQSLLNSRTRKNYLAWYQQKPGQPPKLLIYWASTRESGVPDRFSGSGSGTDFTLTISSLQAEDVAVYYCTQSFILRTFGQGTKVEIK
notes: chains put together from parts; IgG4, kappa; not shown: kappa light chain constant domain (CL)
Turning to B1, in experiment [1], the EC50 (in general, the midpoint of the concentration-response curve) is 1.04 µg/mL and 8.02 nM. In experiment [2], binding was characterised by a dissociation constant (Kd) of 3.66 nM; the off-rate constant (koff) (usually the first-order rate constant of dissociation) was 0.00101 s⁻¹; the association rate constant (kon) – broadly, the rate constant with which the complex forms – stood at 303000 M⁻¹ s⁻¹.

B2: 312 (TA7), configuration of FIG. 1X (bispecific antibody, IgG4)
heavy: EVQLVQSGAEVKKPGASVKVSCKASGFTFTSYYIHWVRQAPGQGLEWIGWIYPENDNTKYNEKFKDRVTITADTSTSTAYLELSSLRSEDTAVYYCARDGYSRYYFDYWGQGTLVTVSSASTKGPSVFPLAPCSRSTSESTAALGCLVKDYFPEPVTVSWNSGALTSGVHTFPAVLQSSGLYSLSSVVTVPSSSLGTKTYTCNVDHKPSNTKVDKRVESKYGPPCPPCPAPEAAGGPSVFLFPPKPKDTLMISRTPEVTCVVVDVSQEDPEVQFNWYVDGVEVHNAKTKPREEQFNSTYRVVSVLTVLHQDWLNGKEYKCKVSNKGLPSSIEKTISKAKGQPREPQVYTLPPCQEEMTKNQVSLWCLVKGFYPSDIAVEWESNGQPENNYKTTPPVLDSDGSFFLYSRLTVDKSRWQEGNVFSCSVMHEALHNHYTQKSLSLSLGGGGSGGGGSEVQLVESGGGFVQAGESLTLSCTSSTLTFTPYRMAWYRQAPGKQRDLVADISSGDGRTTNYADFAKGRFTISRDNIKNTVFLRMTNLKPEDTAVYYCNTFVSFVGIARSWGQGTQVTVSS
chain: ESKYGPPCPPCPAPEAAGGPSVFLFPPKPKDTLMISRTPEVTCVVVDVSQEDPEVQFNWYVDGVEVHNAKTKPREEQFNSTYRVVSVLTVLHQDWLNGKEYKCKVSNKGLPSSIEKTISKAKGQPREPQVCTLPPSQEEMTKNQVSLSCAVKGFYPSDIAVEWESNGQPENNYKTTPPVLDSDGSFFLVSRLTVDKSRWQEGNVFSCSVMHEALHNRFTQKSLSLSL
light: DIVMTQSPDSLAVSLGERATINCKSSQSLLNSRTRKNYLAWYQQKPGQSPKLLIYWTSTRKSGVPDRFSGSGSGTDFTLTISSLQAEDVAVYYCKQSFILRTFGQGTKVEIK
notes: as for B1
For the molecule B2, in experiment [1], the EC50 was 0.146 µg/mL and 1.12 nM. Also, in experiment [2], binding was put at a Kd of 3.24 nM, the off-rate constant (koff) was determined as 0.000565 s⁻¹ and the on-rate constant (kon) came out at 157000 M⁻¹ s⁻¹.

B3: CEA-Knob+Hole-Fab (110) (bispecific antibody, human IgG4 S228P, kappa, F234A L235A)
chain: EVQLVESGGGFVQAGESLTLSCTSSTLTFTPYRMAWYRQAPGKQRDLVADISSGDGRTTNYADFAKGRFTISRDNIKNTVFLRMTNLKPEDTAVYYCNTFVSFVGIARSWGQGTQVTVSSESKYGPPCPPCPAPEAAGGPSVFLFPPKPKDTLMISRTPEVTCVVVDVSQEDPEVQFNWYVDGVEVHNAKTKPREEQFNSTYRVVSVLTVLHQDWLNGKEYKCKVSNKGLPSSIEKTISKAKGQPREPQVYTLPPCQEEMTKNQVSLWCLVKGFYPSDIAVEWESNGQPENNYKTTPPVLDSDGSFFLYSRLTVDKSRWQEGNVFSCSVMHEALHNHYTQKSLSLSL
heavy: ESKYGPPCPPCPAPEAAGGPSVFLFPPKPKDTLMISRTPEVTCVVVDVSQEDPEVQFNWYVDGVEVHNAKTKPREEQFNSTYRVVSVLTVLHQDWLNGKEYKCKVSNKGLPSSIEKTISKAKGQPREPQVCTLPPSQEEMTKNQVSLSCAVKGFYPSDIAVEWESNGQPENNYKTTPPVLDSDGSFFLVSRLTVDKSRWQEGNVFSCSVMHEALHNRFTQKSLSLSLGGGGSGGGGSEVKLLESGGGLVQPKGSLKLSCAASGFTFNTYAMNWVRQAPGKGLEWVARIRSKYNNYATYYADSVKDRFTISRDDSQSILYLQMNNLKTEDTAMYYCVRHGNFGNSYVSWFAYWGQGTLVTVSSASTKGPSVFPLAPCSRSTSESTAALGCLVKDYFPEPVTVSWNSGALTSGVHTFPAVLQSSGLYSLSSVVTVPSSSLGTKTYTCNVDHKPSNTKVDKRV
light: QAVVTQESALTTSPGETVTLTCRSSTGAVTTSNYANWVQEKPDHLFTGLIGGTNKRAPGVPARFSGSLIGDKAALTITGAQTEDEAIYFCALWYSNLWVFGGGTKVEIKRTVAAPSVFIFPPSDEQLKSGTASVVCLLNNFYPREAKVQWKVDNALQSGNSQESVTEQDSKDSTYSLSSTLTLSKADYEKHKVYACEVTHQGLSSPVTKSFNRGEC
notes: Anti-CD3 TA1 Fab + anti-CEA VHH C17 on human IgG4 knob-into-hole Fc; also called CEA-CD3 bispecific antibody 110
With B3, the half-maximal effective concentration (EC50) in experiment [1] is 8.88 µg/mL and 68.3 nM. Moreover, in experiment [2], the affinity, expressed as Kd, was 1.98 nM; the koff turned out to be 0.000565 s⁻¹; the kon stood at 285000 M⁻¹ s⁻¹.

B4: Knob-CEA+Hole-Fab (112) (bispecific antibody, human IgG4 S228P, kappa, F234A L235A)
chain: ESKYGPPCPPCPAPEAAGGPSVFLFPPKPKDTLMISRTPEVTCVVVDVSQEDPEVQFNWYVDGVEVHNAKTKPREEQFNSTYRVVSVLTVLHQDWLNGKEYKCKVSNKGLPSSIEKTISKAKGQPREPQVYTLPPCQEEMTKNQVSLWCLVKGFYPSDIAVEWESNGQPENNYKTTPPVLDSDGSFFLYSRLTVDKSRWQEGNVFSCSVMHEALHNHYTQKSLSLSLGGGGSGGGGSEVQLVESGGGFVQAGESLTLSCTSSTLTFTPYRMAWYRQAPGKQRDLVADISSGDGRTTNYADFAKGRFTISRDNIKNTVFLRMTNLKPEDTAVYYCNTFVSFVGIARSWGQGTQVTVSS
heavy: ESKYGPPCPPCPAPEAAGGPSVFLFPPKPKDTLMISRTPEVTCVVVDVSQEDPEVQFNWYVDGVEVHNAKTKPREEQFNSTYRVVSVLTVLHQDWLNGKEYKCKVSNKGLPSSIEKTISKAKGQPREPQVCTLPPSQEEMTKNQVSLSCAVKGFYPSDIAVEWESNGQPENNYKTTPPVLDSDGSFFLVSRLTVDKSRWQEGNVFSCSVMHEALHNRFTQKSLSLSLGGGGSGGGGSEVKLLESGGGLVQPKGSLKLSCAASGFTFNTYAMNWVRQAPGKGLEWVARIRSKYNNYATYYADSVKDRFTISRDDSQSILYLQMNNLKTEDTAMYYCVRHGNFGNSYVSWFAYWGQGTLVTVSSASTKGPSVFPLAPCSRSTSESTAALGCLVKDYFPEPVTVSWNSGALTSGVHTFPAVLQSSGLYSLSSVVTVPSSSLGTKTYTCNVDHKPSNTKVDKRV
light: QAVVTQESALTTSPGETVTLTCRSSTGAVTTSNYANWVQEKPDHLFTGLIGGTNKRAPGVPARFSGSLIGDKAALTITGAQTEDEAIYFCALWYSNLWVFGGGTKVEIKRTVAAPSVFIFPPSDEQLKSGTASVVCLLNNFYPREAKVQWKVDNALQSGNSQESVTEQDSKDSTYSLSSTLTLSKADYEKHKVYACEVTHQGLSSPVTKSFNRGEC
notes: Anti-CD3 TA1 Fab + anti-CEA VHH C17 on human IgG4 knob-into-hole Fc
For B4, the EC50 in experiment [1] is 5.32 µg/mL and 40.9 nM. Moreover, in experiment [2], the dissociation constant Kd (as a rule, a measure of binding affinity in units of concentration) was 2.44 nM; the off-rate (koff) turned out to be 0.000614 s⁻¹; the kon turned out to be 252000 M⁻¹ s⁻¹.

B5: Knob+CEA-Hole-Fab (111) (bispecific antibody, human IgG4 S228P, kappa, F234A L235A)
chain: ESKYGPPCPPCPAPEAAGGPSVFLFPPKPKDTLMISRTPEVTCVVVDVSQEDPEVQFNWYVDGVEVHNAKTKPREEQFNSTYRVVSVLTVLHQDWLNGKEYKCKVSNKGLPSSIEKTISKAKGQPREPQVYTLPPCQEEMTKNQVSLWCLVKGFYPSDIAVEWESNGQPENNYKTTPPVLDSDGSFFLYSRLTVDKSRWQEGNVFSCSVMHEALHNHYTQKSLSLSL
heavy: EVQLVESGGGFVQAGESLTLSCTSSTLTFTPYRMAWYRQAPGKQRDLVADISSGDGRTTNYADFAKGRFTISRDNIKNTVFLRMTNLKPEDTAVYYCNTFVSFVGIARSWGQGTQVTVSSESKYGPPCPPCPAPEAAGGPSVFLFPPKPKDTLMISRTPEVTCVVVDVSQEDPEVQFNWYVDGVEVHNAKTKPREEQFNSTYRVVSVLTVLHQDWLNGKEYKCKVSNKGLPSSIEKTISKAKGQPREPQVCTLPPSQEEMTKNQVSLSCAVKGFYPSDIAVEWESNGQPENNYKTTPPVLDSDGSFFLVSRLTVDKSRWQEGNVFSCSVMHEALHNRFTQKSLSLSLGGGGSGGGGSEVKLLESGGGLVQPKGSLKLSCAASGFTFNTYAMNWVRQAPGKGLEWVARIRSKYNNYATYYADSVKDRFTISRDDSQSILYLQMNNLKTEDTAMYYCVRHGNFGNSYVSWFAYWGQGTLVTVSSASTKGPSVFPLAPCSRSTSESTAALGCLVKDYFPEPVTVSWNSGALTSGVHTFPAVLQSSGLYSLSSVVTVPSSSLGTKTYTCNVDHKPSNTKVDKRV
light: QAVVTQESALTTSPGETVTLTCRSSTGAVTTSNYANWVQEKPDHLFTGLIGGTNKRAPGVPARFSGSLIGDKAALTITGAQTEDEAIYFCALWYSNLWVFGGGTKVEIKRTVAAPSVFIFPPSDEQLKSGTASVVCLLNNFYPREAKVQWKVDNALQSGNSQESVTEQDSKDSTYSLSSTLTLSKADYEKHKVYACEVTHQGLSSPVTKSFNRGEC
notes: as for B4
Take B5: the 50% effective concentration (EC50) in experiment [1] was 7.6 µg/mL and 58.5 nM. In experiment [2], this molecule showed a Kd of 2.08 nM, a dissociation rate constant (koff) of 0.000694 s⁻¹ and an on-rate constant (kon) of 333000 M⁻¹ s⁻¹.
